Test results as given in paper PMC7414181.
pKd: −log10 of the molar value.

How the values were obtained:
[1] = target: CD4-Ig (UniProt P01730)
[2] = target: CD4-Ig (UniProt P01730); test: SPR; CD4-Ig captured on a protein A biosensor chip; monomeric gp120 proteins flowed over as a fourfold dilution series with a maximum concentration of 250 nM
[3] = target: YU2wt gp120 (HIV-1 strain YU2) (UniProt P35961)
[4] = target: YU2_(E466K) gp120 (HIV-1 (strain YU2))
[5] = target: YU2_(G366E) (HIV-1 (strain YU2))
[6] = target: YU2_(G458D) gp120 (HIV-1 (strain YU2))
[7] = target: YU2_(G471R) gp120 (HIV-1 (strain YU2))

Substance: YU2E466K gp120 (natural protein)
- pKd [1]: 8.77
- koff [1]: 0.00027 s⁻¹
- kon [1]: 160000 M⁻¹ s⁻¹

Substance: YU2G458D gp120 (natural protein)
- pKd [1]: 8.22
- koff [1]: 0.00121 s⁻¹
- kon [1]: 200000 M⁻¹ s⁻¹

Substance: YU2G471R gp120 (natural protein)
- pKd [1]: 8.80
- koff [1]: 0.00021 s⁻¹
- kon [1]: 140000 M⁻¹ s⁻¹

Substance: YU2_(G458D) gp120 (natural protein)
- fold faster dissociation than YU2wt gp120 [2]: 11 fold

Substance: sCD4 D1D2 (domain or fragment)
- Table S5: IC50 of sCD4 in the in vitro neutralisation of YU2wt pseudovirus on TZM-bl cells (blocks Env from CD4 on target cells) [3]: 0.29 µg/mL
- neutralization of YU2 mutant pseudovirus by sCD4, TZM-bl assay, loss of sensitivity against YU2wt [4]: 30 fold
- neutralization of YU2 mutant pseudovirus by sCD4, TZM-bl assay, loss of sensitivity against YU2wt [5]: 30 fold
- neutralization of YU2 mutant pseudovirus by sCD4, TZM-bl assay, loss of sensitivity against YU2wt [6]: 30 fold
- neutralization of YU2 mutant pseudovirus by sCD4, TZM-bl assay, loss of sensitivity against YU2wt [7]: 30 fold
